Source: article doi:10.64898/2025.12.03.692196v2
Numbering of substitutions follows the chain as printed. In names and notes the source's numbering stands.

B1: YRDCWT (human YRDC, ΔN43) (Homo sapiens; R253K) (protein)
chain: GARLLRLPGSGAVQAASPERAGWTEALRAAVAELRAGAVVAVPTDTLYGLACAASCSAALRAVYRLKGRSEAKPLAVCLGRVADVYRYCRVRVPEGLLKDLLPGPVTLVMERSEELNKDLNPFTPLVGIRIPDHAFMQDLAQMFEGPLALTSANLSSQASSLNVEEFQDLWPQLSLVIDGGQIGDGQSPECRLGSTVVDLSVPGKFGIIKPGCALESTTAILQQKYGLLPSHASYL
B2: YRDCWT (human YRDC, ΔN43) (Homo sapiens) (protein)
chain: B1 chain with K210R
B3: YRDCWT (human YRDC, ΔN43) T89A (Homo sapiens; T89A) (protein)
chain: MSPARRCRGMRAAVAASVGLSEGPAGSRSGRLFRPPSPAPAAPGARLLRLPGSGAVQAASPERAGWTEALRAAVAELRAGAVVAVPTDALYGLACAASCSAALRAVYRLKGRSEAKPLAVCLGRVADVYRYCRVRVPEGLLKDLLPGPVTLVMERSEELNKDLNPFTPLVGIRIPDHAFMQDLAQMFEGPLALTSANLSSQASSLNVEEFQDLWPQLSLVIDGGQIGDGQSPECRLGSTVVDLSVPGKFGIIRPGCALESTTAILQQKYGLLPSHASYL
B4: YRDCS195A (Homo sapiens; S238A) (protein)
chain: B3 chain with A89T, S238A

Legend:
[1] = substrate: Nc1ncnc2c1ncn2[C@@H]1O[C@H](COP(=O)(O)OP(=O)(O)OP(=O)(O)O)[C@@H](O)[C@H]1O; test: purified protein, by the assay type
[2] = substrate: C[C@@H](O)[C@H](N)C(=O)O; test: LC-MS of AMP formed from TC-AMP, Michaelis-Menten; type: biochemical, Homo sapiens; conditions: 250 µM ATP, 50 mM NaHCO3, 10 mM MgCl2, Tricine pH 8.5, 37 °C

Protein	Km [1] [µM]	kcat [1] [s⁻¹]	kcat/Km [1] [M⁻¹ s⁻¹]	Km [2] [mM]
B1	737.5 ± 521.2	0.005 ± 0.003	7 ± 6	
B2				7.8
B3	230.7 ± 217.6	0.02 ± 0.001	90 ± 80	
B4	711.8 ± 175.5	0.005 ± 0.0009	7 ± 2	
